The assay addresses T1, FcγRIIa H (FcγRIIa type H, His at position 131), extracellular domain with C-terminal His tag (human, UniProt P12318 34-217).
T1 construct: extracellular domain; also called FcgRIIa H; 2aH
T1 sequence (looked up): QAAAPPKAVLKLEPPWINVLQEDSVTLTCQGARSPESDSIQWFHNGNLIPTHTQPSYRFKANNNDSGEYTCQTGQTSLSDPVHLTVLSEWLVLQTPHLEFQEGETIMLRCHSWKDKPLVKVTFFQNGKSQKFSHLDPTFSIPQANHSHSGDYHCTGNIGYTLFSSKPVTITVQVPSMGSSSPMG
Description: SPR Biacore, relative binding, GpH7-B3/GpL16-k0 (HoCon Ab)=100. Here is the method: Analysis of interaction between objective antibody and the FcγR was carried out using Biacore T100 (GE Healthcare). HBS-EP+ (GE Healthcare) was used as the running buffer, and the measurement temperature was set to 25° C. Chips produced by immobilizing the antigen peptide by the amine coupling method to a Series S Sencor Chip CM5 (GE Healthcare), or alternatively, chips produced by allowing preliminarily biotinylated antigen peptides to interact with and immobilize onto a Series S Sensor Chip SA (certified) (GE Healthcare) were used. Antibodies of interest were captured onto an antigen peptide-immobilized chip, and allowed to interact to each FcγR diluted with running buffer. To regenerate and repeatedly use the chip, the antibodies captured on the chip were washed off by reacting 10 mM glycine-HCl, pH 1.5.
On the technique in general: Surface plasmon resonance follows binding to a sensor surface in real time, without labels.

B1: GpH7-B3 variant K334_14T/GpL16-k0 (antibody, human IgG1, kappa)
heavy: not shown
light: DIVMTQSPLSLPVTPGEPASISCQASESLVHSNRNTYLHWYLQKPGQSPQLLIYKVSNRFSGVPDRFSGSGSGTDFTLKISRVEAEDVGVYYCSQNTHVPPTFGQGTKVEIERTVAAPSVFIFPPSDEQLKSGTASVVCLLNNFYPREAKVQWKVDNALQSGNSQESVTEQDSKDSTYSLSSTLTLSKADYEKHKVYACEVTHQGLSSPVTKSFNRGEC
notes: both H chains mutated; also called Ho Ab
B1: the Ho/Con_2aH is 105 % of control.

B2: GpH7-B3 variant L328_14T/GpL16-k0 (antibody, human IgG1, kappa)
heavy: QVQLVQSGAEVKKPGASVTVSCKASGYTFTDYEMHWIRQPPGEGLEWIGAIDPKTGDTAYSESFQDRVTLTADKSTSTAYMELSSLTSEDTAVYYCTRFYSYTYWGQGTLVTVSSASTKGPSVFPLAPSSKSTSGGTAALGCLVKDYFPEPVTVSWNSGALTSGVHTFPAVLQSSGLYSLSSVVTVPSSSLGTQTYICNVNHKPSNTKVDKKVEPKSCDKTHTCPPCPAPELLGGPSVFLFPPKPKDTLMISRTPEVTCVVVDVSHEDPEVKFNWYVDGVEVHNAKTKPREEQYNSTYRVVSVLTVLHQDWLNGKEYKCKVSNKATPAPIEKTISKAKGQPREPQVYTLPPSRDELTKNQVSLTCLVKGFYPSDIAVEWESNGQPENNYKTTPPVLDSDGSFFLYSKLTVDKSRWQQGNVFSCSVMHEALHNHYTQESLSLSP
light: DIVMTQSPLSLPVTPGEPASISCQASESLVHSNRNTYLHWYLQKPGQSPQLLIYKVSNRFSGVPDRFSGSGSGTDFTLKISRVEAEDVGVYYCSQNTHVPPTFGQGTKVEIERTVAAPSVFIFPPSDEQLKSGTASVVCLLNNFYPREAKVQWKVDNALQSGNSQESVTEQDSKDSTYSLSSTLTLSKADYEKHKVYACEVTHQGLSSPVTKSFNRGEC
notes: as for B1
As for B2, the Ho/Con_2aH is 110 % of control.

B3: GpH7-B3 variant L235_20W/GpL16-k0 (antibody, human IgG1, kappa)
heavy: not shown
light: DIVMTQSPLSLPVTPGEPASISCQASESLVHSNRNTYLHWYLQKPGQSPQLLIYKVSNRFSGVPDRFSGSGSGTDFTLKISRVEAEDVGVYYCSQNTHVPPTFGQGTKVEIERTVAAPSVFIFPPSDEQLKSGTASVVCLLNNFYPREAKVQWKVDNALQSGNSQESVTEQDSKDSTYSLSSTLTLSKADYEKHKVYACEVTHQGLSSPVTKSFNRGEC
notes: as for B1
B3: the Ho/Con_2aH was 112 % of control.

B4: GpH7-B3 variant L328_02A/GpL16-k0 (antibody, human IgG1, kappa)
heavy: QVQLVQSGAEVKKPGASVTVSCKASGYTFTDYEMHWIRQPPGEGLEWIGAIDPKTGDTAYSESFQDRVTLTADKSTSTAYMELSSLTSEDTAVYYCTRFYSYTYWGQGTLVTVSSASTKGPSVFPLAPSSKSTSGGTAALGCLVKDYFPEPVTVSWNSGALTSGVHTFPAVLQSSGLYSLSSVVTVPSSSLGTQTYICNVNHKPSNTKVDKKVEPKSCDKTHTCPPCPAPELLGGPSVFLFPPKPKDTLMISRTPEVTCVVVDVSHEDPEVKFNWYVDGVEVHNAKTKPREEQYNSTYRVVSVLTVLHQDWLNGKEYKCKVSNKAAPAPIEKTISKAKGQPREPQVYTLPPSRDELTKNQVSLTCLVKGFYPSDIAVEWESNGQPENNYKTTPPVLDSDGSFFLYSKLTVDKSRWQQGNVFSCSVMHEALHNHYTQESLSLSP
light: DIVMTQSPLSLPVTPGEPASISCQASESLVHSNRNTYLHWYLQKPGQSPQLLIYKVSNRFSGVPDRFSGSGSGTDFTLKISRVEAEDVGVYYCSQNTHVPPTFGQGTKVEIERTVAAPSVFIFPPSDEQLKSGTASVVCLLNNFYPREAKVQWKVDNALQSGNSQESVTEQDSKDSTYSLSSTLTLSKADYEKHKVYACEVTHQGLSSPVTKSFNRGEC
notes: as for B1
As to B4, the Ho/Con_2aH is 134 % of control.

B5: GpH7-B3 variant P271_01G/GpL16-k0 (antibody, human IgG1, kappa)
heavy: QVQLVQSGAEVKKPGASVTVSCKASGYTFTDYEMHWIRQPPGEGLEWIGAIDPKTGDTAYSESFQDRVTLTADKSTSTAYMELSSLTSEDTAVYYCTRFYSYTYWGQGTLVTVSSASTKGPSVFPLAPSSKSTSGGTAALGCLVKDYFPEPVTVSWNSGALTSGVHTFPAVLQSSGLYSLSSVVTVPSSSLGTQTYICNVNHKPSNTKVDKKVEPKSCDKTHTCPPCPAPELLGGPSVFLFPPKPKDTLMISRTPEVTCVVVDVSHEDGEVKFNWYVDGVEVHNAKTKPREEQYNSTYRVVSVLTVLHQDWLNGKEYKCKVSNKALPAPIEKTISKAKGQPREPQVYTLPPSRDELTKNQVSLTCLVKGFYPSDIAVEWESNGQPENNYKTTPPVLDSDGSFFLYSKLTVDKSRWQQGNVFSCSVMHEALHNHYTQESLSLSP
light: DIVMTQSPLSLPVTPGEPASISCQASESLVHSNRNTYLHWYLQKPGQSPQLLIYKVSNRFSGVPDRFSGSGSGTDFTLKISRVEAEDVGVYYCSQNTHVPPTFGQGTKVEIERTVAAPSVFIFPPSDEQLKSGTASVVCLLNNFYPREAKVQWKVDNALQSGNSQESVTEQDSKDSTYSLSSTLTLSKADYEKHKVYACEVTHQGLSSPVTKSFNRGEC
notes: as for B1
Consider B5, for which the Ho/Con_2aH is 110 % of control.

B6: GpH7-B3 variant S337_10E/GpL16-k0 (antibody, human IgG1, kappa)
heavy: not shown
light: DIVMTQSPLSLPVTPGEPASISCQASESLVHSNRNTYLHWYLQKPGQSPQLLIYKVSNRFSGVPDRFSGSGSGTDFTLKISRVEAEDVGVYYCSQNTHVPPTFGQGTKVEIERTVAAPSVFIFPPSDEQLKSGTASVVCLLNNFYPREAKVQWKVDNALQSGNSQESVTEQDSKDSTYSLSSTLTLSKADYEKHKVYACEVTHQGLSSPVTKSFNRGEC
notes: as for B1
Regarding B6, the Ho/Con_2aH was 101 % of control.

B7: GpH7-B3 variant S337_09D/GpL16-k0 (antibody, human IgG1, kappa)
heavy: not shown
light: DIVMTQSPLSLPVTPGEPASISCQASESLVHSNRNTYLHWYLQKPGQSPQLLIYKVSNRFSGVPDRFSGSGSGTDFTLKISRVEAEDVGVYYCSQNTHVPPTFGQGTKVEIERTVAAPSVFIFPPSDEQLKSGTASVVCLLNNFYPREAKVQWKVDNALQSGNSQESVTEQDSKDSTYSLSSTLTLSKADYEKHKVYACEVTHQGLSSPVTKSFNRGEC
notes: as for B1
Regarding B7, the Ho/Con_2aH is 107 % of control.

B8: GpH7-B3 variant K334_15Y/GpL16-k0 (antibody, human IgG1, kappa)
heavy: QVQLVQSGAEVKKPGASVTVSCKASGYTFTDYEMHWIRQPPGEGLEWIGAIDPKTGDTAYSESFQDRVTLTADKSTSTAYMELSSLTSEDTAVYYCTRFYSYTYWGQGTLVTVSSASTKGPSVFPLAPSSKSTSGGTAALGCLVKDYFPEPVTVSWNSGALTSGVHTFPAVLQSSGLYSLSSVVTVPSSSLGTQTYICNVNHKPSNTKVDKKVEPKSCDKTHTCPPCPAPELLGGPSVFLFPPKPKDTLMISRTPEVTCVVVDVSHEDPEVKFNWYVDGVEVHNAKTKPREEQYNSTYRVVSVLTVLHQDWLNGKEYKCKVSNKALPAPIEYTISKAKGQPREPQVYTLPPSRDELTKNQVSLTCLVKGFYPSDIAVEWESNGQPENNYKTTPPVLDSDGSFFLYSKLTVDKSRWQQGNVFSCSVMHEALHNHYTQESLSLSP
light: DIVMTQSPLSLPVTPGEPASISCQASESLVHSNRNTYLHWYLQKPGQSPQLLIYKVSNRFSGVPDRFSGSGSGTDFTLKISRVEAEDVGVYYCSQNTHVPPTFGQGTKVEIERTVAAPSVFIFPPSDEQLKSGTASVVCLLNNFYPREAKVQWKVDNALQSGNSQESVTEQDSKDSTYSLSSTLTLSKADYEKHKVYACEVTHQGLSSPVTKSFNRGEC
notes: as for B1
For B8, the Ho/Con_2aH was 110 % of control.

B9: GpH7-B3 variant K334_16H/GpL16-k0 (antibody, human IgG1, kappa)
heavy: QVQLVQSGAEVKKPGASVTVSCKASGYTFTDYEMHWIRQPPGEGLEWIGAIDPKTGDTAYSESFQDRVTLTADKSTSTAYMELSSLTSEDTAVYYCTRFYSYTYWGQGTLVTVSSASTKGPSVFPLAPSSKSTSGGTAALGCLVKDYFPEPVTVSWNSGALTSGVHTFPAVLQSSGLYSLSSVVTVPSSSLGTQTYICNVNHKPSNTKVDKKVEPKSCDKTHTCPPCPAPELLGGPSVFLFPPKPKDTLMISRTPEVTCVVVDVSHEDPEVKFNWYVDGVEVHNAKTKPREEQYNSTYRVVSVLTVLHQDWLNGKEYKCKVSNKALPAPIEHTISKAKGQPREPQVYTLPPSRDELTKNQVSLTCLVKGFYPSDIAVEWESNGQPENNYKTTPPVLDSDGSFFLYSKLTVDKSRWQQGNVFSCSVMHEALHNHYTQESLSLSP
light: DIVMTQSPLSLPVTPGEPASISCQASESLVHSNRNTYLHWYLQKPGQSPQLLIYKVSNRFSGVPDRFSGSGSGTDFTLKISRVEAEDVGVYYCSQNTHVPPTFGQGTKVEIERTVAAPSVFIFPPSDEQLKSGTASVVCLLNNFYPREAKVQWKVDNALQSGNSQESVTEQDSKDSTYSLSSTLTLSKADYEKHKVYACEVTHQGLSSPVTKSFNRGEC
notes: as for B1
Take B9: the Ho/Con_2aH is 101 % of control.

B10: GpH7-B3 variant S324_02A/GpL16-k0 (antibody, human IgG1, kappa)
heavy: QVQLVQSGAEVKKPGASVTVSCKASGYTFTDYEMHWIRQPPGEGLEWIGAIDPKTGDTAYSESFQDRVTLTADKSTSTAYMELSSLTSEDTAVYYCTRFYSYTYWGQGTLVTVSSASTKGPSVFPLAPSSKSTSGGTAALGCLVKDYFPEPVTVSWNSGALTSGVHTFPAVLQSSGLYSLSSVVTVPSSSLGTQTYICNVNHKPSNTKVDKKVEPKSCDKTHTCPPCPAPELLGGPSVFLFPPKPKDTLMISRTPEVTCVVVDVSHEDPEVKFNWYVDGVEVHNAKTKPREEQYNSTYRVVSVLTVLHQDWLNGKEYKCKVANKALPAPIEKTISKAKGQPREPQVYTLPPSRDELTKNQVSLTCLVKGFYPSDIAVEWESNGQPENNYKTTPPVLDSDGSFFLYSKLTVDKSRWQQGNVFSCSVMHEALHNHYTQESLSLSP
light: DIVMTQSPLSLPVTPGEPASISCQASESLVHSNRNTYLHWYLQKPGQSPQLLIYKVSNRFSGVPDRFSGSGSGTDFTLKISRVEAEDVGVYYCSQNTHVPPTFGQGTKVEIERTVAAPSVFIFPPSDEQLKSGTASVVCLLNNFYPREAKVQWKVDNALQSGNSQESVTEQDSKDSTYSLSSTLTLSKADYEKHKVYACEVTHQGLSSPVTKSFNRGEC
notes: as for B1
B10: the Ho/Con_2aH was 102 % of control.

B11: GpH7-B3 variant S324_06M/GpL16-k0 (antibody, human IgG1, kappa)
heavy: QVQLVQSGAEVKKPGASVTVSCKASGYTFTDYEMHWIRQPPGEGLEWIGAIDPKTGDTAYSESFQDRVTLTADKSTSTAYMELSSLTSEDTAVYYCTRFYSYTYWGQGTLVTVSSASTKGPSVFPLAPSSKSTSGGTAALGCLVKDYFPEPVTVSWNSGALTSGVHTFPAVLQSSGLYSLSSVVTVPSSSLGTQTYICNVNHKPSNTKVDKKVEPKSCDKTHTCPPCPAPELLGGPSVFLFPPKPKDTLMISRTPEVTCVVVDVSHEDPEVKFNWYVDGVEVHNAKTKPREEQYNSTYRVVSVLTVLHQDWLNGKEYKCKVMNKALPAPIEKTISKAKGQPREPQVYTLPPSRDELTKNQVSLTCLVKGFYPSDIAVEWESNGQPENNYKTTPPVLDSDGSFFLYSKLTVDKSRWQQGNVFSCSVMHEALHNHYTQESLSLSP
light: DIVMTQSPLSLPVTPGEPASISCQASESLVHSNRNTYLHWYLQKPGQSPQLLIYKVSNRFSGVPDRFSGSGSGTDFTLKISRVEAEDVGVYYCSQNTHVPPTFGQGTKVEIERTVAAPSVFIFPPSDEQLKSGTASVVCLLNNFYPREAKVQWKVDNALQSGNSQESVTEQDSKDSTYSLSSTLTLSKADYEKHKVYACEVTHQGLSSPVTKSFNRGEC
notes: as for B1
For the molecule B11, the Ho/Con_2aH is 123 % of control.

B12: GpH7-B3 variant S324_10E/GpL16-k0 (antibody, human IgG1, kappa)
heavy: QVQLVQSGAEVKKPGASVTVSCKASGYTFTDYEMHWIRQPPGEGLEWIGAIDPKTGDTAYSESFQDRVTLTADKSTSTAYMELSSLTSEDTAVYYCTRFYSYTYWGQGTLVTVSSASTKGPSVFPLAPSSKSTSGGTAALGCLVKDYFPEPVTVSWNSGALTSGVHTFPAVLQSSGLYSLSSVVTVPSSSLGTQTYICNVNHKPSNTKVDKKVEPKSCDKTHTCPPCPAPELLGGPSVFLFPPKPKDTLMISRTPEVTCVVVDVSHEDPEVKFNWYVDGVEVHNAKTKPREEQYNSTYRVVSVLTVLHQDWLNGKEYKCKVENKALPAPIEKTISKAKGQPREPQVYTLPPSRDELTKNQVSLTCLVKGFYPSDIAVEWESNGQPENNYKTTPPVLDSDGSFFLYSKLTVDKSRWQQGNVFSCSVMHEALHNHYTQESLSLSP
light: DIVMTQSPLSLPVTPGEPASISCQASESLVHSNRNTYLHWYLQKPGQSPQLLIYKVSNRFSGVPDRFSGSGSGTDFTLKISRVEAEDVGVYYCSQNTHVPPTFGQGTKVEIERTVAAPSVFIFPPSDEQLKSGTASVVCLLNNFYPREAKVQWKVDNALQSGNSQESVTEQDSKDSTYSLSSTLTLSKADYEKHKVYACEVTHQGLSSPVTKSFNRGEC
notes: as for B1
Regarding B12, the Ho/Con_2aH is 104 % of control.

B13: GpH7-B3 variant L328_13S/GpL16-k0 (antibody, human IgG1, kappa)
heavy: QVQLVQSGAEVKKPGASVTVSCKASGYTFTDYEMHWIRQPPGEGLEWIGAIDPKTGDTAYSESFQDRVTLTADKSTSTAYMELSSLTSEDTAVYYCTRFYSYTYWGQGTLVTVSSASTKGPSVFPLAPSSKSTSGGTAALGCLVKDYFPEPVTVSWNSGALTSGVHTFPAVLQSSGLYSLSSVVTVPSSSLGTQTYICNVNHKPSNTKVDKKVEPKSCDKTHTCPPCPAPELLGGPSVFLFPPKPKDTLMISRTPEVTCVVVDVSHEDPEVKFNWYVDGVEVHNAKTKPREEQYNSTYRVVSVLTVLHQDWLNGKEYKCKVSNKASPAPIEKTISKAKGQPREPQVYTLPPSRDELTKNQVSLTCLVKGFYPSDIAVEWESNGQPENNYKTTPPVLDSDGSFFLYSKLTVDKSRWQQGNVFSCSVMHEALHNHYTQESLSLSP
light: DIVMTQSPLSLPVTPGEPASISCQASESLVHSNRNTYLHWYLQKPGQSPQLLIYKVSNRFSGVPDRFSGSGSGTDFTLKISRVEAEDVGVYYCSQNTHVPPTFGQGTKVEIERTVAAPSVFIFPPSDEQLKSGTASVVCLLNNFYPREAKVQWKVDNALQSGNSQESVTEQDSKDSTYSLSSTLTLSKADYEKHKVYACEVTHQGLSSPVTKSFNRGEC
notes: as for B1
Turning to B13, the Ho/Con_2aH was 131 % of control.

B14: GpH7-B3 variant Q295_07I/GpL16-k0 (antibody, human IgG1, kappa)
heavy: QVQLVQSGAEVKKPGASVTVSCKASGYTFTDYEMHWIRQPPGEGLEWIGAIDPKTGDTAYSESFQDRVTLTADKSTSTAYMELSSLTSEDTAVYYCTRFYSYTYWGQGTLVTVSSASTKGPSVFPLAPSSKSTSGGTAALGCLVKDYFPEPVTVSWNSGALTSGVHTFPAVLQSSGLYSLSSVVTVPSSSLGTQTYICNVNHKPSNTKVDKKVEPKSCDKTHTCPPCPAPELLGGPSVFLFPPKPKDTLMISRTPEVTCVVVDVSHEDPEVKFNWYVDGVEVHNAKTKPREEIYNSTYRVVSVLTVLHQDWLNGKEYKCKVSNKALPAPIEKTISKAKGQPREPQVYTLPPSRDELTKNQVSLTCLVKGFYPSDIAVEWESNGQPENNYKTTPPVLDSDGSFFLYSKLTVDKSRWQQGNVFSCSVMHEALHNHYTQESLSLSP
light: DIVMTQSPLSLPVTPGEPASISCQASESLVHSNRNTYLHWYLQKPGQSPQLLIYKVSNRFSGVPDRFSGSGSGTDFTLKISRVEAEDVGVYYCSQNTHVPPTFGQGTKVEIERTVAAPSVFIFPPSDEQLKSGTASVVCLLNNFYPREAKVQWKVDNALQSGNSQESVTEQDSKDSTYSLSSTLTLSKADYEKHKVYACEVTHQGLSSPVTKSFNRGEC
notes: as for B1
Regarding B14, the Ho/Con_2aH is 108 % of control.

B15: GpH7-B3 variant Q295_05P/GpL16-k0 (antibody, human IgG1, kappa)
heavy: not shown
light: DIVMTQSPLSLPVTPGEPASISCQASESLVHSNRNTYLHWYLQKPGQSPQLLIYKVSNRFSGVPDRFSGSGSGTDFTLKISRVEAEDVGVYYCSQNTHVPPTFGQGTKVEIERTVAAPSVFIFPPSDEQLKSGTASVVCLLNNFYPREAKVQWKVDNALQSGNSQESVTEQDSKDSTYSLSSTLTLSKADYEKHKVYACEVTHQGLSSPVTKSFNRGEC
notes: as for B1
Turning to B15, the Ho/Con_2aH is 106 % of control.

B16: GpH7-B3 variant S239_09D/GpL16-k0 (antibody, human IgG1, kappa)
heavy: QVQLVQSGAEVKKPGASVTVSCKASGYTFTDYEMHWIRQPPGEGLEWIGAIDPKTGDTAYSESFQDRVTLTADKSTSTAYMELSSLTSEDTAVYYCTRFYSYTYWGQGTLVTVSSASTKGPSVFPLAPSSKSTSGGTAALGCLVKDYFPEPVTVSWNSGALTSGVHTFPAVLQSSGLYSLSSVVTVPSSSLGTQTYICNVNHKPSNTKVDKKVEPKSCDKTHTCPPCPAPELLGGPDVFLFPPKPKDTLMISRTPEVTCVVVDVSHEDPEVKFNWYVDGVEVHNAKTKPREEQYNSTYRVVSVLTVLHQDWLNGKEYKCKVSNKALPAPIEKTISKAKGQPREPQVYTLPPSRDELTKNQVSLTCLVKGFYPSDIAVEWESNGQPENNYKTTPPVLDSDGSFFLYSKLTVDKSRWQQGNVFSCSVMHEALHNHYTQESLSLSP
light: DIVMTQSPLSLPVTPGEPASISCQASESLVHSNRNTYLHWYLQKPGQSPQLLIYKVSNRFSGVPDRFSGSGSGTDFTLKISRVEAEDVGVYYCSQNTHVPPTFGQGTKVEIERTVAAPSVFIFPPSDEQLKSGTASVVCLLNNFYPREAKVQWKVDNALQSGNSQESVTEQDSKDSTYSLSSTLTLSKADYEKHKVYACEVTHQGLSSPVTKSFNRGEC
notes: as for B1
Turning to B16, the Ho/Con_2aH was 112 % of control.

B17: GpH7-B3 variant S324_20W/GpL16-k0 (antibody, human IgG1, kappa)
heavy: not shown
light: DIVMTQSPLSLPVTPGEPASISCQASESLVHSNRNTYLHWYLQKPGQSPQLLIYKVSNRFSGVPDRFSGSGSGTDFTLKISRVEAEDVGVYYCSQNTHVPPTFGQGTKVEIERTVAAPSVFIFPPSDEQLKSGTASVVCLLNNFYPREAKVQWKVDNALQSGNSQESVTEQDSKDSTYSLSSTLTLSKADYEKHKVYACEVTHQGLSSPVTKSFNRGEC
notes: as for B1
As to B17, the Ho/Con_2aH is 108 % of control.

B18: GpH7-B3 variant S267_02A/GpL16-k0 (antibody, human IgG1, kappa)
heavy: not shown
light: DIVMTQSPLSLPVTPGEPASISCQASESLVHSNRNTYLHWYLQKPGQSPQLLIYKVSNRFSGVPDRFSGSGSGTDFTLKISRVEAEDVGVYYCSQNTHVPPTFGQGTKVEIERTVAAPSVFIFPPSDEQLKSGTASVVCLLNNFYPREAKVQWKVDNALQSGNSQESVTEQDSKDSTYSLSSTLTLSKADYEKHKVYACEVTHQGLSSPVTKSFNRGEC
notes: as for B1
Consider B18, for which the Ho/Con_2aH was 120 % of control.

B19: GpH7-B3 variant L328_06M/GpL16-k0 (antibody, human IgG1, kappa)
heavy: not shown
light: DIVMTQSPLSLPVTPGEPASISCQASESLVHSNRNTYLHWYLQKPGQSPQLLIYKVSNRFSGVPDRFSGSGSGTDFTLKISRVEAEDVGVYYCSQNTHVPPTFGQGTKVEIERTVAAPSVFIFPPSDEQLKSGTASVVCLLNNFYPREAKVQWKVDNALQSGNSQESVTEQDSKDSTYSLSSTLTLSKADYEKHKVYACEVTHQGLSSPVTKSFNRGEC
notes: as for B1
Regarding B19, the Ho/Con_2aH was 100 % of control.

B20: GpH7-B3 variant S324_09D/GpL16-k0 (antibody, human IgG1, kappa)
heavy: not shown
light: DIVMTQSPLSLPVTPGEPASISCQASESLVHSNRNTYLHWYLQKPGQSPQLLIYKVSNRFSGVPDRFSGSGSGTDFTLKISRVEAEDVGVYYCSQNTHVPPTFGQGTKVEIERTVAAPSVFIFPPSDEQLKSGTASVVCLLNNFYPREAKVQWKVDNALQSGNSQESVTEQDSKDSTYSLSSTLTLSKADYEKHKVYACEVTHQGLSSPVTKSFNRGEC
notes: as for B1
In the case of B20, the Ho/Con_2aH was 113 % of control.

These data come from patent publication US20150344570A1 (published 2015).
